# Values quoted from earlier work as cited in patent publication US6660905B1, “Mice comprising engrafted functional human hepatocytes” (The Board of Trustees of the Leland Stanford Junior …, priority 1999, dated 2003).
substance,measurement,value
HGF: human hepatocyte growth factor,half-life,on the order of minutes
